Measurements reported in patent publication US20250179196A1 (Janssen / Centocor, published 2025).

B1: I23RB45 (antibody, mouse IgG2a, kappa, V domains shown)
VH: QVTLKESGPGILQPSQTLSLTCSFSGFSLSTYGMGVSWIRQPSGKGLEWLAHIYWDDDKRYNPSLKSRLTISKDTSNNQVFLKITSVDTADTATYYCAQRALPLLGQKAPFDYWGQGTTLTVSS
VL: DIVLTQSQKFISTSVGDRVSITCKASQNVRTAVAWYQQKPGQSPKLLIYLPSNRHTGVPDRFTGSGSGTVFTLTISNVQSEDQADYFCLQHWNYPLTFGAGTKLELKR
notes: mouse immunization; mouse IgG2a/kappa
B2: I23RB321 (antibody, mouse IgG2a, kappa, V domains shown)
VH: QVQLVQSGAEVKKPGSSVKVSCKASGGTFSSYGISWVRQAPGQGLEWMGWISAIFGTTNYAQKFQGRVTITADESTSTAYMELSSLRSEDTAVYYCARHWLQSFDYWGQGTLVTVSS
VL: DIQMTQSPSSLSASVGDRVTITCRASQSIGGDLNWYQQKPGKAPKLLIYAASSLQSGVPSRFSGSGSGTDFTLTISSLQPEDFATYYCQQSYSTPLTFGQGTKVEIKR
notes: phage display; human V regions, mouse IgG2a/kappa constant regions
B3: I23RB264 (antibody, mouse IgG2a, kappa, V domains shown)
VH: QVQLVQSGAEVKKPGSSVKVSCKASGGTFSSYAISWVRQAPGQGLEWMGGIIPIFGTANYAQKFQGRVTITADESTSTAYMELSSLRSEDTAVYYCARRSSPGFDYWGQGTLVTVSS
VL: DIQMTQSPSSLSASVGDRVTITCRASQSIDNDLNWYQQKPGKAPKLLIYNASSLQSGVPSRFSGSGSGTDFTLTISSLQPEDFATYYCQQPYSIPLTFGQGTKVEIKR
notes: as for B2
B4: I23RB261 (antibody, mouse IgG2a, kappa, V domains shown)
VH: QVQLVQSGAEVKKPGSSVKVSCKASGGTFSSYAISWVRQAPGQGLEWMGWISPYFGTANYAQKFQGRVTITADESTSTAYMELSSLRSEDTAVYYCARMYRQGFDYWGQGTLVTVSS
VL: DIQMTQSPSSLSASVGDRVTITCRASQSINDDLNWYQQKPGKAPKLLIYAASSLQSGVPSRFSGSGSGTDFTLTISSLQPEDFATYYCQQSYSTPLTFGQGTKVEIKR
notes: as for B2
B5: I23RB319 (antibody, mouse IgG2a, kappa, V domains shown)
VH: QVQLVQSGAEVKKPGSSVKVSCKASGGTFSSYGISWVRQAPGQGLEWMGWISAIFGTTNYAQKFQGRVTITADESTSTAYMELSSLRSEDTALYYCARPLKQAFDYWGQGTLVTVSS
VL: DIQMTQSPSSLSASVGDRVTITCRASQSITDDLNWYQQKPGKAPKLLIYAASSLQSGVPSRFSGSGSGTDFTLTISSLQPEDFATYYCQQSYSTPLTFGQGTKVEIKR
notes: as for B2
B6: I23RB259 (antibody, mouse IgG2a, kappa, V domains shown)
VH: QVQLVQSGAEVKKPGSSVKVSCKASGGTFSSYGISWVRQAPGQGLEWMGWISPIFGTTNYAQKFQGRVTITADESTSTAYMELSSLRSEDTAVYYCARMMMQSLDYWGQGTLVTVSS
VL: not shown
notes: as for B2
B7: I23RB260 (antibody, mouse IgG2a, kappa, V domains shown)
VH: QVQLVQSGAEVKKPGSSVKVSCKASGGTFSSYGISWVRQAPGQGLEWMGGIIPIFGTANYAQKFQGRVTITADESTSTAYMELSSLRSEDTAVYYCARDFGWSLWFDYWGQGTLVTVSS
VL: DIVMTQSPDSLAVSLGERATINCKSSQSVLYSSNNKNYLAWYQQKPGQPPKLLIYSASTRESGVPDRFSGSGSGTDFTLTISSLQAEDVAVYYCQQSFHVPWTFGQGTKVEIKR
notes: as for B2
B8: I23RB31 (antibody, mouse IgG2a, kappa, V domains shown)
VH: EFQLQQSGAEMVRPGASVKLSCKASGYTFTGYWMNWVKQRPGQGLEWIGKIDPSDTETHYNQNFKDKATLTVDKSSSTAYMQLNSLTSEDSAVYYCARWGLGRNFAMDYWGQGTTLTVSS
VL: DIVLTQSPATLSVTPGDRVSLSCRASQSISDHLHWYQQKSHESPRLLIKFASQSISGIPSRFSGSGSGSDFTLSIDSVEPEDVGVYYCQNGHSFPLTFGSGTKLEIKR
notes: as for B1
B9: I23RB317 (antibody, mouse IgG2a, kappa, V domains shown)
VH: QVQLVQSGAEVKKPGSSVKVSCKASGGTFSSYAISWVRQAPGQGLEWMGGIIPIFGTANYAQKFQGRVTITADESTSTAYMELSSLRSEDTAVYYCARGNGVNYHSELDYWGQGTLVTVSS
VL: EIVLTQSPATLSLSPGERATLSCRASQSVDSFLAWYQQKPGQAPRLLIYTASNRATGIPARFSGSGSGTDFTLTISSLEPEDFAVYYCQQGNSAPFTFGQGTKVEIKR
notes: as for B2
B10: I23RB161 (antibody, mouse IgG2a, kappa, V domains shown)
VH: EFQLQQSGPELVKPGASVKISCKASVYAFSSSWMNWVKQRPGKGLEWIGRIYPGDGDTNYNGKFKGKATLTADKSSSTAYMQLSSLTSEDSAVYFCARRYDFGSAMDYWGQGTSVTVSS
VL: DIVMTQSPAILSASPGEKVTMTCRASSSVSYMHWYQQKPGSSPKPWIYATSDLASGAPARFSGSGSGTSYSLTISRVEAEDAATYYCQQWSSNPPTFGGGTKLEIKR
notes: as for B1
B11: I23RB69 (antibody, mouse IgG2a, kappa, V domains shown)
VH: EVQLQQSGAELVKPGASVKISCKASGYSFTGYNMNWVKQSHGKSLEWIGNINPFYDKTSYNQKFKGKATLTVDKASSTAYMQLNSLTSEDSAVYYCARQLGLKGFAYWGQGTLVTVSA
VL: DIVMTQSHKFMSTSVGDRVSITCKASQDVSTAVAWYQQKPGQSPKLLIYSASYRYTGVPDRFTGSGSGTDFTFTISSVQAEDLAVYYCQQHYSTPWTFGGGTKLEMKR
notes: as for B1
B12: I23RB85 (antibody, mouse IgG2a, kappa, V domains shown)
VH: DVQLQESGPGLVAPSQSLSITCTVSGFSFNTYAITWVRQPPGRGLEWLGVLWPGGGISYNLALKSRLTISRDSSKSQVFLEMNSLQTDDTARYYCARNWRHYDGSYAMDFWGQGTSVTVSS
VL: DIVLTQSPLSLFVSLGDQASISCRSSQSLVHSNGNTYLHWYLQKPGQSPKLLIYKVSNRFSGVPDRFSGSGSGTDFTLKISRVEAEDLGVYFCSQSTHVPWTFGGGTRLEIKR
notes: as for B1
B13: I23RB91 (antibody, mouse IgG2a, kappa, V domains shown)
VH: EFQLQQFGPELLKPGASVKISCKASGYTFTDYIMHWVKQSHGKSLEWIGGISPNYGGTGYNGKFKDKATLTVDKSSSTAYMELRSLTSEDSAVYYCARFNNYYYFDYWGQGTTLTVSS
VL: DIKMTQSPSSMYASLGERVTITCKASQDINSYLSWCQQKPGKSPKALIYRANSLVDGVPSRFSGSGSGQDYSLTISSLEYEDMGIYYCLQYDEFPYTFGGGTKLEMKR
notes: as for B1
B14: I23RB177 (antibody, mouse IgG2a, kappa, V domains shown)
VH: EVQLQQSGPELLKPGASVKISCKASGYTITDYTMHWVKQSHGKSLEWIGGINPNYGGTSYNEKFKDKATLTVDKSSSTAYMELRSLTSEDSAVFYCVRGNIYFDYWGQGTTLTVSS
VL: NTQMTQSPSSMYASLGERVTITCKASQDINSYLSWFQQKPGKSPKALIYRANRLVDGVPSRFSGSGSGQDYSLTISSLEYEDMGIYYCQQYDEFPRTFGAGTKLELKR
notes: as for B1
B15: I23RB180 (antibody, mouse IgG2a, kappa, V domains shown)
VH: QVTLKESGPGILQPSQTLSLTCSFSGFSLSTYGMGVGWIRQPSGKGLEWLANIWWNDSKYHNAALKSRLTISKDTSKNQVFLKIASVDTADTATYYCGRIDGYYECVDVWGTGTSVTVSS
VL: DIQMTQSPASLSASVGETVTITCRASVNIHNYLAWYQQKQGKSPQLLVYNAKTLADGVPSRFSGSGSGTQYSLKINSLQPEDFGSYYCQHFWTTPYMYTFGAGTKLELKR
notes: as for B1

Each binder was assayed against T1, Recombinant human IL-23 receptor (IL-23R) extracellular domain (ECD) protein (human, UniProt Q5VWK5 24-355) (assay: SPR Biacore 8K, supernatant, analysis 1).
T1 construct: also called human IL-23R ECD; hu IL-23R ECD
T1 sequence: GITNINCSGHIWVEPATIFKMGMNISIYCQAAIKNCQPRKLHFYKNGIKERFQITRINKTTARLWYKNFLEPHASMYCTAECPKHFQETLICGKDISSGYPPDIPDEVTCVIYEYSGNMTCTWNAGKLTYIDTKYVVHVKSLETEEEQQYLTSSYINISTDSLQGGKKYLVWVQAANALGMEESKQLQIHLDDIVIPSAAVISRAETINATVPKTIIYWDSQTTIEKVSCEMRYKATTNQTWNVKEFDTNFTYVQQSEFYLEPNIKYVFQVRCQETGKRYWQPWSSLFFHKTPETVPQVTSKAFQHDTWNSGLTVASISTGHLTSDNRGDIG
Description: (§1) Affinity by SPR using Biacore 8K. Affinity measurements using Surface Plasmon Resonance (SPR) were performed using a Biacore 8K system (Cytiva). […] Approximately 9000-10000 RU (response units) of mAbs were immobilized. The kinetic experiments were performed at 25° C. in running buffer 1× of (HBS-P+ Buffer 10× (Cytiva #BR100671)+100 μg/ml BSA). To perform kinetic experiments, approximately 150 RU of mAbs were captured followed by injections of human IL-23R or rat IL-23R at concentrations ranging from 0.8 nM to 500 nM (in a 5-fold serial dilution). The association phase was monitored for 3 minutes at 50 μL/min, then followed by 30 minutes of buffer flow (dissociation phase). […] The collected data were processed using Biacore insight Evaluation software (Version 3.0.12.15655). The kinetic analysis of the data was performed using a Langmuir 1:1 binding model. The result for each mAb was reported in the format of Ka (On-rate), Kd (Off-rate) and KD (equilibrium dissociation constant).
Binder B1 has a Kd of 21 nM, a koff of 0.00332 s⁻¹ and a kon of 158000 M⁻¹ s⁻¹. Work on B2 yielded a Kd of 18.4 nM, a koff of 0.000384 s⁻¹ and a kon of 20900 M⁻¹ s⁻¹. Binder B3 has a Kd of 17.9 nM, a koff of 0.000847 s⁻¹ and a kon of 47400 M⁻¹ s⁻¹. B4 showed a Kd of 22.5 nM, a koff of 0.000402 s⁻¹ and a kon of 17900 M⁻¹ s⁻¹. For B5, the Kd was 9.05 nM, the koff was 8.01e-05 s⁻¹ and the kon was 8850 M⁻¹ s⁻¹. In the case of B6, the Kd is reported as 13.4 nM, the koff is reported as 0.000752 s⁻¹ and the kon is reported as 55900 M⁻¹ s⁻¹. Work on B7 yielded a Kd of 4.75 nM, a koff of 8.72e-05 s⁻¹ and a kon of 18400 M⁻¹ s⁻¹. Binder B8 has a Kd of 18.9 nM, a koff of 0.00123 s⁻¹ and a kon of 65500 M⁻¹ s⁻¹. B9 was tested, and the Kd was 25.2 nM, the koff was 0.000596 s⁻¹ and the kon was 23600 M⁻¹ s⁻¹. B10 was tested, and the Kd was 84.5 nM, the koff was 0.0274 s⁻¹ and the kon was 324000 M⁻¹ s⁻¹. B11 showed a Kd of 263 nM, a koff of 0.0493 s⁻¹ and a kon of 188000 M⁻¹ s⁻¹. In the case of B12, the Kd is reported as 1.08 nM, the koff is reported as 0.000226 s⁻¹ and the kon is reported as 210000 M⁻¹ s⁻¹. Work on B13 yielded a Kd of 5.15 nM, a koff of 0.00011 s⁻¹ and a kon of 21400 M⁻¹ s⁻¹. B14 was tested, and the Kd was 5.7 nM, the koff was 0.000107 s⁻¹ and the kon was 18800 M⁻¹ s⁻¹. With B15 the Kd was 150 nM, the koff was 0.0302 s⁻¹ and the kon was 201000 M⁻¹ s⁻¹.

The binders below were run against T1, Recombinant human IL-23 receptor … (assay: SPR Biacore 8K, supernatant, analysis 2).
Description: as §1
In the case of B1, the Kd is reported as 22.5 nM, the koff is reported as 0.00456 s⁻¹ and the kon is reported as 203000 M⁻¹ s⁻¹. Work on B8 yielded a Kd of 8.55 nM, a koff of 0.000781 s⁻¹ and a kon of 91300 M⁻¹ s⁻¹. With B12 the Kd was 1.43 nM, the koff was 0.000178 s⁻¹ and the kon was 124000 M⁻¹ s⁻¹.
